The values below come from the supplement of paper PMC10567573.

± gives the standard deviation.

The nature of the data set: protein stability index of a GFP-peptide fusion (GPS, HEK-293T) (PSI 1-6); higher = more stable.
[1] abbreviates: treatment: DMSO, c terminus: a fixed tail appended.
The mark [2] stands for this setting: treatment: MLN4924 1 uM, 8 h, c terminus: a fixed tail appended.
Setting [3] is: treatment: DMSO, c terminus: native.
Where [4] appears, read: treatment: MLN4924 1 uM, 8 h, c terminus: native.
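Also: 24-mer peptide tiles fused after GFP, lentivirally expressed, FACS-sorted into six equal bins by GFP/DsRed ratio, decoded by Illumina sequencing, PSI is the read-weighted mean bin number.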

Take IEDDIRPEKQKRKPGLRRSPIKKV [MYBL2]: the protein stability index under setting [1] amounted to 5.01 ± 0.25 and the protein stability index under setting [2] worked out at 4.83 ± 0.23. Turning to IEDLEVTCTWKLPTLAKFSPYLGQ [PRAME], the protein stability index under setting [1] worked out at 2.62 ± 0.32 and the protein stability index under setting [2] was 2 ± 0.58. In the case of IEDTPLVPVSFIFIFTFVKKKKIG [PCDHGA10], the protein stability index is, setting by setting: under setting [1], 2.29 ± 0.55; under setting [2], 3.12 ± 0.37. For the sequence IEELCQKREELCRQIQEEEDEKQR [SSNA1], the protein stability index by setting is: under setting [1], 5.43 ± 0.1; under setting [2], 5.52 ± 0.12. The corresponding values for IEPYITNFFNQVLMLGKTSISDLS [PDS5B] are 3.01 ± 0.42 and 2.91 ± 0.45. IETLIRDMLLSGSSFNWPYMAIQ [NR2F2]: the protein stability index by setting is: under setting [3], 3.02 ± 1.2; under setting [4], 2.64 ± 0.41.

Turning to IFEETLNILIYETPRGPDPALLEA [KCTD13], the protein stability index reads like this: under setting [1], 2.47 ± 0.51; under setting [2], 2.63 ± 0.28. The corresponding values for IFFMAAFAFSNGYLASLCMCFGPK [SLC29A1] are 2.42 ± 0.38 and 2.52 ± 0.34. The corresponding values for IFSGAASLGYGTNVAATGISQYED [APBB1IP] are 3.83 ± 0.24 and 3.67 ± 0.16. With IHSCFSDVTCFLLPHPGLQVATSP [ATL3], the protein stability index reads like this: under setting [1], 2.34 ± 0.7; under setting [2], 2.29 ± 0.49. Take IIHVVKDQLIGQGIIVKDARLNGS [TENT5D]: the protein stability index is, setting by setting: under setting [1], 2.2 ± 0.18; under setting [2], 2.25 ± 0.72. Take IKDQGGAGEGLVRSANGFPYREDE [MAP2]: the protein stability index turned out to be 5.13 ± 0.3 under setting [1] and 5.18 ± 0.28 under setting [2].

IKSDEECRDLVDEAKNYLLLPQER [KLHL20] displayed a protein stability index under setting [1] of 4.68 ± 0.14 and a protein stability index under setting [2] of 4.64 ± 0.13.

The sequence ILIASRDIAAGEELLYDYGDRSKA [KMT5A] came in with a protein stability index under setting [1] of 3.44 ± 0.45 and a protein stability index under setting [2] of 3.64 ± 0.65. As to ILIIQGVLSDINLKKGESECQYYI [NET1], the protein stability index was 2.73 ± 0.54 under setting [1] and 2.67 ± 1 under setting [2].

With ILIVDWDVHHGNGTQHMFEDDPSV [HDAC6], the protein stability index is, setting by setting: under setting [1], 2.18 ± 0.23; under setting [2], 2.39 ± 0.21.

Regarding ILKSQKERQCALRVFKARIYTNRY [FBXO39], the protein stability index worked out at 2.41 ± 0.35 under setting [1] and 2.46 ± 0.29 under setting [2]. The matching figures for ILQDQEHIFAHRIYLATSSSKFYD [RHOBTB1]: 2.15 ± 0.35 and 2.4 ± 0.16. For the sequence ILQSPAFCEELESMIQEQFKKGKN [ADD1], the protein stability index under setting [1] worked out at 3.53 ± 0.16 and the protein stability index under setting [2] was 3.76 ± 0.17. Take ILSACSPYFRAMFTGELAESRQTE [KLHL20]: the protein stability index under setting [1] stood at 2.06 ± 0.086 and the protein stability index under setting [2] was found to be 2.48 ± 0.33. The corresponding values for ILTGCKNMLFQQNKDGIGEICLWG [ACSBG2] are 3.01 ± 1.4 and 2.92 ± 0.44. The matching figures for ILTRSWEEVSTLNAQIPELKSDLE [CD207]: 3.56 ± 0.28 and 3.78 ± 0.16. With IREDRDRARLDSMVLLIMKLDQLD [DLC1], the protein stability index reads like this: under setting [1], 2.35 ± 0.45; under setting [2], 2.18 ± 0.32. With IRESDPEQAPAPGEATAAPAPLCG [TBX6], the protein stability index runs as follows: under setting [1], 5.32 ± 0.53; under setting [2], 5.31 ± 0.2. For the sequence ISFNKTMTQLSSTLARCAKDILGF [PKD2L1], the protein stability index was 2.96 ± 0.85 under setting [1] and 2.62 ± 0.56 under setting [2]. Turning to ISGGVHNGEYVPWLYCYDPVMDVW [KLHL14], the protein stability index is, setting by setting: under setting [1], 2.32 ± 0.33; under setting [2], 2.59 ± 0.73. As for ISKSLELCNEISLSEIKDAPKVNA [DLC1], the protein stability index reads like this: under setting [1], 4.12 ± 0.39; under setting [2], 4.21 ± 0.066. In the case of ISSVGGEAMFCDFPKINHGILYDE [CFHR2], under setting [1], the protein stability index is 3.38 ± 0.26. For IVRRFLNICENTEGAIAVHCKAGL [CDC14A], the protein stability index is, setting by setting: under setting [1], 2.36 ± 0.39; under setting [2], 2.11 ± 0.23. The corresponding values for IVSEVQFVESSGGGSSAVGQFVSL [BRF1] are 2.25 ± 0.23 and 2.23 ± 0.26. The matching figures for IVSRATGRCLEVEMSKDANFGLRL [GALNT9]: 2.66 ± 0.76 and 2.72 ± 0.67.

Turning to IVVIPGKVEEVSLPEQVDIIISEP [CARM1], the protein stability index reads like this: under setting [1], 2.47 ± 0.45; under setting [2], 2.16 ± 0.29.

Consider KADIGAPSGFKHVSHVGWDPQNGF [WAS], for which the protein stability index runs as follows: under setting [1], 3.2 ± 0.37; under setting [2], 3.33 ± 0.089. Take KALEDFEDLCDRVFSDEDSELDN [FAM9B]: the protein stability index worked out at 4.98 ± 0.16 under setting [3] and 5.17 ± 0.3 under setting [4]. In turn, KATEPTETVQTWIELLTGETWNPF [GOLPH3L] yielded a protein stability index under setting [1] of 2.36 ± 0.13 and a protein stability index under setting [2] of 2.5 ± 0.34. As to KCKAEHDQLLLNYAKKESDLNGAQ [LMNB1], the protein stability index reads like this: under setting [1], 4.03 ± 0.38; under setting [2], 4.01 ± 0.32. With KDLFTQRQNSAPARMLSSNERDSS [CDC25A], the protein stability index reads like this: under setting [1], 4.88 ± 0.23; under setting [2], 4.84 ± 0.25. Regarding KDTRMAEEYCHKHYDRNKDGNKDV [VPS39], the protein stability index reads like this: under setting [1], 4.68 ± 0.21; under setting [2], 5.03 ± 0.23. Regarding KEIQYLKDLIEEVRKARGKKRVP [ATF4], the protein stability index was determined as 2.52 ± 0.47 under setting [3] and 2.33 ± 0.47 under setting [4]. KELILDKVYTHPKWNTQTKARSYS [ZC2HC1C]: the protein stability index reads like this: under setting [1], 2.91 ± 0.44; under setting [2], 3.44 ± 0.46. The corresponding values for KERAAGGGAGSSEDDAQSRRDEQD [GOLPH3] are 5.65 ± 0.35 and 5.67 ± 0.15. The corresponding values for KGEVPKGSCEDEPMDSTMDDAVAG [ATE1] are 5.48 ± 0.28 and 5.61 ± 0.17. KGFPGCKLGLHDNHWVPACHSFNR [FBXO34]: the protein stability index was 2.26 ± 0.69 under setting [1] and 2.48 ± 0.15 under setting [2]. The corresponding values for KGISSHSRSSLMPLRNDVDKRGET [SLC2A12] are 5 ± 0.39 and 5.06 ± 0.22. The matching figures for KGKVLAQQGEYSEAIPILRAALKL [FKBP8]: 2.37 ± 0.38 and 2.42 ± 0.56. The corresponding values for KGNLLRHIKLHSGEKPFKCHLCNY [IKZF1] are 2.37 ± 0.38 and 2.4 ± 0.23. With KGPLVPFPNQKSEAAEPPKTPPSS [KMT5A], the protein stability index reads like this: under setting [1], 5.25 ± 0.25; under setting [2], 5.39 ± 0.21. The corresponding values for KHLTDTSHGVRNKCLQLLGNLGSL [INTS4] are 2.45 ± 0.4 and 2.46 ± 0.42. The matching figures for KIGYHLLYYLRASKAAAGKMNLYE [INTS3]: 2.3 ± 0.49 and 2.25 ± 0.23. KKAWDDLKKYLEPRCPRMVLSLKE [FBXO3] registered a protein stability index under setting [1] of 2.78 ± 0.26 and a protein stability index under setting [2] of 2.86 ± 0.17. As for KKCGRENWTVAFAPDGSYFAWSQG [WSB1], the protein stability index is, setting by setting: under setting [1], 2.33 ± 0.53; under setting [2], 2.22 ± 0.31.

KKSRSPASAEAPGDSGERSEGEAM [ZNF511]: the protein stability index runs as follows: under setting [1], 5.53 ± 0.39; under setting [2], 5.57 ± 0.1. Take KKWGINTYKCTKQLLSERFGRGSR [ARFIP2]: the protein stability index reads like this: under setting [1], 2.65 ± 0.28; under setting [2], 2.86 ± 0.53. The matching figures for KLKPLGEAEREFILNLKKKECKDR [NLN]: 4.17 ± 0.23 and 4.45 ± 0.2. The corresponding values for KLPSSGSGKRLSGVSSVDSAFSSR [RIPK4] are 3.9 ± 0.095 and 3.99 ± 0.4. The matching figures for KLRHLDISRDRLSSYYKFKLTREV [ZER1]: 2.35 ± 0.13 and 2.39 ± 0.31.

In the case of KLSARDHQKLEREARICRLLKHPN [CAMK2D], the protein stability index reads like this: under setting [1], 3.38 ± 0.31; under setting [2], 3.8 ± 0.39. The matching figures for KLTREVLSLFVQKLGNLMSLDISG [ZER1]: 2.86 ± 0.81 and 2.56 ± 0.46. Consider KMKFVIGNGKNLVDFTFVENVVHG [NSDHL], for which the protein stability index amounted to 2.24 ± 0.19 under setting [1] and 2.24 ± 0.47 under setting [2]. The corresponding values for KMKHHLTEHMKTHTGLKPYECGVC [ZBTB22] are 3.32 ± 0.28 and 3.5 ± 0.47. Sequence KMLLMYCAKMEKDGYGMTPLLSAS [FEM1C] displayed a protein stability index under setting [1] of 2.56 ± 0.67 and a protein stability index under setting [2] of 2.11 ± 0.46. The corresponding values for KNLYKLASQCCGVHVISLHIWELS [PTGFR] are 2.97 ± 0.15 and 3.06 ± 0.48. With KNVEENLYSSSLGGGVATSPMLIV [GLT8D2], the protein stability index turned out to be 2.26 ± 0.26 under setting [1] and 2.06 ± 0.22 under setting [2]. For KNVELKFVDSIRRQFEFSVDSFQI [TENT5C], the protein stability index reads like this: under setting [1], 2.29 ± 0.6; under setting [2], 2.42 ± 0.39.

For the sequence KPLFCGNSEADQLGKIFDLIGLPP [CDK4], the protein stability index under setting [1] was found to be 2.62 ± 0.15 and the protein stability index under setting [2] was 2.71 ± 0.28.

With KPLTLEALGHLGNDDSADYQHFLQ [DLC1], the protein stability index runs as follows: under setting [1], 4.23 ± 0.12; under setting [2], 4.33 ± 0.15. For KPSKELKPLLGSAVLGLLLVLAAV [MYORG], the protein stability index reads like this: under setting [1], 2.4 ± 0.25; under setting [2], 2.34 ± 0.28. With KQIAGGDVTAKNIWLAESVLDILT [INTS3], the protein stability index runs as follows: under setting [1], 2.2 ± 0.064; under setting [2], 2.13 ± 0.26.

In the case of KQIAVAITEALRPAGVGVVVEATH [GCH1], the protein stability index worked out at 2.37 ± 0.28 under setting [1] and 2.42 ± 0.25 under setting [2].

For KQKTSAALSTMGTLICRKLGGVKK [TPD52L3], the protein stability index stood at 2.98 ± 0.29 under setting [1] and 2.83 ± 0.34 under setting [2].

Turning to KQPNCSSLFKLKPLSNKTATDDTG [PLD5], the protein stability index turned out to be 4.46 ± 0.13 under setting [1] and 4.772 ± 0.045 under setting [2]. The matching figures for KRKREEEEEKEPLAVDSWWLDPGH [SERTAD1]: 4.64 ± 0.38 and 4.79 ± 0.15.
